Results: the supplement of paper PMC11246515
± gives the standard deviation of the averaged measurements.

Test: total protein half-life in vivo (active degradation + dilution); higher = more stable protein
[1] = E. coli NCM3722 delta-clpP delta-lon delta-hslV, growth: N-lim chemostat, doubling time 6 h
[2] = E. coli NCM3722 delta-hslV, growth: N-lim chemostat, doubling time 6 h
[3] = E. coli NCM3722 delta-lon, growth: N-lim chemostat, doubling time 6 h
[4] = E. coli NCM3722 delta-smpB, growth: N-lim chemostat, doubling time 6 h
[5] = wild type E. coli NCM3722, growth: C-lim chemostat, doubling time 3 h
[6] = wild type E. coli NCM3722, growth: C-lim chemostat, doubling time 6 h
[7] = wild type E. coli NCM3722, growth: C-lim chemostat, doubling time 12 h
[8] = wild type E. coli NCM3722, growth: N-lim chemostat, doubling time 6 h
[9] = wild type E. coli NCM3722, growth: N-lim chemostat, doubling time 12 h
[10] = wild type E. coli NCM3722, growth: P-lim chemostat, doubling time 6 h
[11] = wild type E. coli NCM3722, growth: P-lim chemostat, doubling time 12 h
[12] = E. coli NCM3722 delta-clpP, growth: N-lim chemostat, doubling time 6 h

MTTYDRNRNAITTGSRVMVSGTGHTGKILSIDTEGLTAEQIRRGKTVVVEGCEEKLAPLDLIRLGMN
total protein half-life in vivo [1]: 4.22 ± 0.059 h | total protein half-life in vivo [2]: 4.25 ± 0.64 h | total protein half-life in vivo [3]: 4.53 ± 0.13 h | total protein half-life in vivo [4]: 4.42 ± 0.76 h | total protein half-life in vivo [5]: 2.88 ± 0.38 h | total protein half-life in vivo [6]: 4.16 ± 0.068 h | total protein half-life in vivo [7]: 5.42 ± 0.38 h | total protein half-life in vivo [8]: 4.075 ± 0.023 h | total protein half-life in vivo [9]: 6.36 ± 0.21 h | total protein half-life in vivo [10]: 4.52 ± 0.25 h | total protein half-life in vivo [11]: 9.35 ± 0.55 h

MTVETQLNPTQPVNQQIYRILRRDIVHCLIAPGTPLSEKEVSVRFNVSRQPVREAFIKLAENGLIQIRPQRGSYVNKISMAQVRNGSFIRQAIECAVARRAASMITESQCYQLEQNLHQQRIAIERKQLDDFFELDDNFHQLLTQIADCQLAWDTIENLKATVDRVRYMSFDHVSPPEMLLRQHLDIFSALQKRDGDAVERAMTQHLQEISESVRQIRQENSDWFSEE [P0ACM2]
total protein half-life in vivo [1]: 6.15 ± 0.24 h | total protein half-life in vivo [12]: 7.72 h | total protein half-life in vivo [2]: 5.98 ± 0.4 h | total protein half-life in vivo [3]: 5.9 ± 0.9 h | total protein half-life in vivo [4]: 4.12 ± 1.4 h | total protein half-life in vivo [5]: 3.42 ± 0.53 h | total protein half-life in vivo [6]: 6.44 ± 1.2 h | total protein half-life in vivo [7]: 10.2 ± 0.65 h | total protein half-life in vivo [8]: 5.71 ± 0.13 h | total protein half-life in vivo [9]: 11.7 ± 1.3 h | total protein half-life in vivo [10]: 5.18 ± 0.51 h | total protein half-life in vivo [11]: 9.7 ± 1.7 h

MTVSSHRLELLSPARDAAIAREAILHGADAVYIGGPGFGARHNASNSLKDIAELVPFAHRYGAKIFVTLNTILHDDELEPAQRLITDLYQTGVDALIVQDMGILELDIPPIELHASTQCDIRTVEKAKFLSDVGFTQIVLARELNLDQIRAIHQATDATIEFFIHGALCVAYSGQCYISHAQTGRSANRGDCSQACRLPYTLKDDQGRVVSYEKHLLSMKDNDQTANLGALIDAGVRSFKIEGRYKDMSYVKNITAHYRQMLDAIIEERGDLARASSGRTEHFFVPSTEKTFHRGSTDYFVNARKGDIGAFDSPKFIGLPVGEVVKVAKDHLDVAVTEPLANGDGLNVLIKREVVGFRANTVEKTGENQYRVWPNEMPADLHKIRPHHPLNRNLDHNWQQALTKTSSERRVAVDIELGGWQEQLILTLTSEEGVSITHTLDGQFDEANNAEKAMNNLKDGLAKLGQTLYYARDVQINLPGALFVPNSLLNQFRREAADMLDAARLASYQRGSRKPVADPAPVYPQTHLSFLANVYNQKAREFYHRYGVQLIDAAYEAHEEKGEVPVMITKHCLRFAFNLCPKQAKGNIKSWKATPMQLVNGDEVLTLKFDCRPCEMHVIGKIKNHILKMPLPGSVVASVSPDELLKTLPKRKG
total protein half-life in vivo [1]: 4.77 ± 0.49 h | total protein half-life in vivo [12]: 0.895 h | total protein half-life in vivo [2]: 1.82 ± 0.064 h | total protein half-life in vivo [3]: 2.74 ± 0.24 h | total protein half-life in vivo [4]: 1.75 ± 0.024 h | total protein half-life in vivo [5]: 1.911 ± 0.011 h | total protein half-life in vivo [6]: 2.78 ± 0.12 h | total protein half-life in vivo [7]: 3.03 ± 0.49 h | total protein half-life in vivo [8]: 2.12 ± 0.058 h | total protein half-life in vivo [9]: 2.47 ± 0.12 h | total protein half-life in vivo [10]: 2.13 ± 0.32 h | total protein half-life in vivo [11]: 3.17 ± 0.38 h

MTVTRPRAERGAFPPGTEHYGRSLLGAPLIWFPAPAASRESGLILAGTHGDENSSVVTLSCALRTLTPSLRRHHVVLCVNPDGCQLGLRANANGVDLNRNFPAANWKEGETVYRWNSAAEERDVVLLTGDKPGSEPETQALCQLIHRIQPAWVVSFHDPLACIEDPRHSELGEWLAQAFELPLVTSVGYETPGSFGSWCADLNLHCITAEFPPISSDEASEKYLFAMANLLRWHPKDAIRPS [P0ACV6]
total protein half-life in vivo [1]: 4.35 ± 0.052 h | total protein half-life in vivo [12]: 4.17 ± 0.28 h | total protein half-life in vivo [2]: 3.78 ± 0.16 h | total protein half-life in vivo [3]: 4.19 ± 0.46 h | total protein half-life in vivo [4]: 3.94 ± 0.21 h | total protein half-life in vivo [5]: 3.03 ± 0.27 h | total protein half-life in vivo [6]: 4.71 ± 0.84 h | total protein half-life in vivo [7]: 9.23 ± 0.26 h | total protein half-life in vivo [8]: 3.66 ± 0.29 h | total protein half-life in vivo [9]: 6.85 ± 0.2 h | total protein half-life in vivo [10]: 4.71 ± 0.42 h | total protein half-life in vivo [11]: 10.7 ± 0.85 h

MVAENQPGHIDQIKQTNAGAVYRLIDQLGPVSRIDLSRLAQLAPASITKIVREMLEAHLVQELEIKEAGNRGRPAVGLVVETEAWHYLSLRISRGEIFLALRDLSSKLVVEESQELALKDDLPLLDRIISHIDQFFIRHQKKLERLTSIAITLPGIIDTENGIVHRMPFYEDVKEMPLGEALEQHTGVPVYIQHDISAWTMAEALFGASRGARDVIQVVIDHNVGAGVITDGHLLHAGSSSLVEIGHTQVDPYGKRCYCGNHGCLETIASVDSILELAQLRLNQSMSSMLHGQPLTVDSLCQAALRGDLLAKDIITGVGAHVGRILAIMVNLFNPQKILIGSPLSKAADILFPVISDSIRQQALPAYSQHISVESTQFSNQGTMAGAALVKDAMYNGSLLIRLLQG
total protein half-life in vivo [1]: 5.81 ± 0.28 h | total protein half-life in vivo [12]: 6.92 ± 0.73 h | total protein half-life in vivo [3]: 6.12 ± 0.57 h | total protein half-life in vivo [4]: 6.02 ± 0.33 h | total protein half-life in vivo [5]: 2.89 ± 0.014 h | total protein half-life in vivo [6]: 5.92 ± 0.69 h | total protein half-life in vivo [7]: 9.65 ± 0.51 h | total protein half-life in vivo [8]: 5.85 ± 0.26 h | total protein half-life in vivo [9]: 12.8 ± 0.51 h | total protein half-life in vivo [10]: 6.19 ± 1 h | total protein half-life in vivo [11]: 12.4 ± 0.56 h

MVAPIPAKRGRKPAVATAPATGQVQSLTRGLKLLEWIAESNGSVALTELAQQAGLPNSTTHRLLTTMQQQGFVRQVGELGHWAIGAHAFMVGSSFLQSRNLLAIVHPILRNLMEESGETVNMAVLDQSDHEAIIIDQVQCTHLMRMSAPIGGKLPMHASGAGKAFLAQLSEEQVTKLLHRKGLHAYTHATLVSPVHLKEDLAQTRKRGYSFDDEEHALGLRCLAACIFDEHREPFAAISISGPISRITDDRVTEFGAMVIKAAKEVTLAYGGMR
total protein half-life in vivo [1]: 5.87 ± 0.33 h | total protein half-life in vivo [12]: 5.93 ± 0.11 h | total protein half-life in vivo [2]: 5.33 ± 0.38 h | total protein half-life in vivo [3]: 5.45 ± 0.43 h | total protein half-life in vivo [4]: 5.348 ± 0.028 h | total protein half-life in vivo [5]: 2.89 ± 0.17 h | total protein half-life in vivo [6]: 5.43 ± 0.46 h | total protein half-life in vivo [7]: 9.91 ± 0.97 h | total protein half-life in vivo [8]: 5.51 ± 0.18 h | total protein half-life in vivo [9]: 9.96 ± 1.1 h | total protein half-life in vivo [10]: 4.91 ± 0.12 h | total protein half-life in vivo [11]: 9.56 ± 0.21 h
